Where no end group is shown, it is not given here.
Molecular target: T1, AtsB, anaerobic sulfatase maturating enzyme from Klebsiella pneumoniae, wild type, reconstituted (Klebsiella pneumoniae, UniProt Q9X758 1-395)
T1 sequence (looked up): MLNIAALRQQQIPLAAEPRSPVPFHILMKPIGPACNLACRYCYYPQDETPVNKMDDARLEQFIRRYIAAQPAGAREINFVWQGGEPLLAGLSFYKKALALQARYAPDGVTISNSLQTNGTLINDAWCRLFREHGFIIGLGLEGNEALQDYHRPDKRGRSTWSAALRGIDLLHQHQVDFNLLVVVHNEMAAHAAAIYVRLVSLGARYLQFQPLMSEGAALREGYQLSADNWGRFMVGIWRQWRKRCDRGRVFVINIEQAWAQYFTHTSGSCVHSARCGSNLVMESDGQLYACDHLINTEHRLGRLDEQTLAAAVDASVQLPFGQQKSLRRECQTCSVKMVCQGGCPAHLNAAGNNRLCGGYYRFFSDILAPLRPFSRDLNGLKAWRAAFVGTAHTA
Assay: SEC

Ac-YYTSPMSAPARSMLLTGN [Kp18Ser peptide substrate]: binds.

— publication PMC3897223 (Biochemistry, 2013)
